According to patent US20230257794A1:

Assays:
TNFα [1] = molecular target: TNFα (UniProt P01375); experiment: biolayer interferometry (Octet); fragment secreted by L. gasseri
TNFα [2] = molecular target: TNFα (UniProt P01375); experiment: biolayer interferometry; fragment secreted by L. rhamnosus GG SP1
HIV-RSC3 = experiment: biolayer interferometry (Octet); fragment secreted by L. gasseri SP1

Sequence of UniProt P01375 (P01375 77-233 limits assumed): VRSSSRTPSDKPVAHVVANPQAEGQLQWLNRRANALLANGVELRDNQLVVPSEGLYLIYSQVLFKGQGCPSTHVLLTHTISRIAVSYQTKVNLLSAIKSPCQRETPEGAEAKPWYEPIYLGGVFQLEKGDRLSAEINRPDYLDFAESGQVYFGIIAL

Row | Substance | Kd (TNFα [1]) | Kd (TNFα [2]) | Kd (HIV-RSC3)
1 | ozoralizumab (anti-TNFα NANOBODY / antibody fragment marketed by Ablynx) (VHH) | 0.69 nM | 6.2 nM | –
2 | VRC01scFv (anti-HIV single chain fragment derived from the broadly neutralizing IgG antibody VRC01) | – | – | 10.2 nM
